Test results: the nanobody polyreactivity screen of Harvey et al. (2022)

Test: yeast display, Sf9 membrane polyspecificity reagent, FACS + sequencing; frameworks hold sequencing errors
Procedure, shortened: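 Nanobodies came from a synthetic yeast display library in Saccharomyces cerevisiae BJ5465, induced with galactose for 36–48 hours and stained for 1 hour at 4 °C with 10% biotinylated, detergent-solubilized Sf9 membrane reagent. Cells were enriched on streptavidin microbeads and then FACS-sorted, with low and high (top ~1%) gates set on anti-HA fluorescence for expression and streptavidin fluorescence for reagent binding. Each polyreactivity label reflects the gate a clone came from. Genes were amplified by colony PCR, sequenced by MiSeq 2 × 250 and filtered by CDR length.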

Row | Sequence | polyreactivity (PSR sort gate)
1 | QDQHVESGGGLVQAGGSLRLSCAASVITYGRYVMGWDRQAPGKERELVAAITGSGGSTYYADSVKGRFTISRDNAKNTVYLQMNSLKAEDTAVYYCAAAGGYRFDYWGQGTQVTVSS | high polyreactivity
2 | QDQHVESGGGLVQAGGSLRLSCSASGRTFDYYAMGWYRQAPGKERELVAAINSGGNTYYADSVKGRFTISRDNAKNTVYLQMNSLKPEDTAVYYCAAYYRDKLSGYNYWGQGTQVTVSS | high polyreactivity
3 | QDQHVESGGGVVQAGGSRRLSCAASGFTISSYAMGWYRPAPGKERHLVAAITWSGSRTYYADSVKGRFTISRDNAKNTVYLQMNSLKPEDTAVYYCAATYRSYRGVRYYLGQGTQVTVSS | high polyreactivity
4 | QDQHVESGRGLVQEGGSLRLSSPPSGRTIYEYAIGWYRQAPGKETQLVAGITTSGGSTYYAVSVKGRFTISRDNAKNTVYLQMNSLKPEDTAVYYCAKYRKSRGDNDSWGQGTQVTVSS | high polyreactivity
5 | QDQIVDSRGVLVQEGGSLGLSCAASGLTIYSYAMGFSRQAPRKERELVATITNGDTTTYAETVKARFTISRDNAKNNVIFQFNILKPEDTAVYYCAQHISPGYDEYDYWGQGTQVTVSS | low polyreactivity
6 | QDQLEESGGGLVQEGGSLRIICDAYRSTFYANTMGWYRQSTGKERELVATISIDGSTNYADSVKGRFTFSRDYAKNTVYLQMNSLKPEDTAVYYCNADVYSVLYGYWGQGTQVSVSS | low polyreactivity
7 | QDQLEESGVGLLQAGGSLRLSCAASGNTFFVNDMGWYRHAPRKERELLAVISINGDSTFYADSVKGRFTISRDNAKNTVYLQMNSLKPEDTAVYYCAADFRRVFCKYSYYLYFEFDYWGQGTQVTVSS | low polyreactivity
8 | QDQLGESGGGLVQAGGSLRLSCAAAGSIFGTNAMGWYRQAPGKEREFVATISSRTGSTYYADSVKGRFTISRDNAKNRVYLQMNSLKPEDPAVYYCAAVRWYGKYDDWGQGTQVTVSS | low polyreactivity
9 | QDQLGESGGGLVQAGGSLRLSCAASGSTFRYYAMGWYRQAPGKERELLAAITSSGGSTYYADSVKGRFTISRDNAMNTVYLQMNSLNPEDTAVYYCAVAVKNWVKLNYWGQGTQVTVSS | high polyreactivity
10 | QDQLLESGGGLGQAGGSLRLSCAASGITFGRYAMGWYRQAPGKERELVAAITWGGGSTYYADSVKGRFTISRDNAKNTVYLQMNSLKPEDTAVYYCAARSYGRWFGGYDSWGQGTQVTVSS | high polyreactivity
11 | QDQLLESGGGLVQAGGSLRLSCAASGRTFRYYTMGWYRQAPGKEREFVAAISSTGGTYYADSVKGRFTISRDNAKNTVYLQMNSLKPEDTAVYYCAATFIQFVVNVELYDYDYWGQGTQVTVSS | low polyreactivity
12 | QDQLVDSGGCLVQAGGSLSLSCAASGNTFNIYAMGWYRQAPGKEREFVAAITVSDTSTYYADSVKGRFTISRDNAKNTVYLKMHSLKPEDTSVYYCNADWWCTYDYYYWGQGTQGTVSS | low polyreactivity
13 | QDQLVDSGGGLDQAGGSLRLSCAATGRTIGINAMGWYRQAPGKERELVAVISFGDGGTYSADSVKGRFTISRDNAKNTVYLQMNSLKPEDTAVYYCATDYQSTSVWGGHFVINPFDYWGQGTQVTVSS | low polyreactivity
14 | QDQLVDSGGGLVQAGGSLRFSCAASGFIFRFNAMGWYRQAPGKERELVADIRWSSGSTYYADSVKGRYTISRDNAKNTVYLEMNSLKPEDTAVFYCAVTYLRVHYKFTPFDYWGQGTQVTVSS | low polyreactivity
15 | QDQLVDSGGGLVQAGGSLRLSCAASGRISGYYAMGWYRQAPGKERELVASITYRGGSTYYADSVKGRFTISRDNAKNTVYLQINSLKPEDTAVYSCNFRYRPNRGSIGQPNSGKNWYDYWGLGTQVTVSS | high polyreactivity
16 | QDQLVDSGGGLVQAGGSLRLSCAASGRTFYTYAMGWYRQAPGKEREFVARISKRGGGTYYADSVKGRFTISRENAKNTVDLQMNSLIPEDTAVYYCNAGVPSAMDYWGQGTQLTVSS | high polyreactivity
17 | QDQLVDSGGGLVQAGGSLRLSCAASGSIFYLYAMGWYRQAPGKEREFVAAITWRGGSTYYADSVKGRFTISRDNAKNTVYLQLNSLKPEDTAVYYCGAKLPRVYGYGFEYWGQGTQVTVSS | low polyreactivity
18 | QDQLVDSGGGLVQAGGSLRLSCAASGSIYDPYAMGWYRQAPGKERELVATIDWDDASTYYADSVKGRFTISRDNAKNTVYLQMNSLKPEDTAVYYCATRDRAGYYYWGQGTQVTVSS | high polyreactivity
19 | QDQLVDSGGGLVQAGGSLRLSCASSGGTFSYYTMGWYRQAPGKERELVARISKNGGRTYYADSVKGRFTISRDNAKNTVYLQLNSLKPEDTAVYYCNAAGRTYDFSGGRTMEYWGQGTQVTVSS | high polyreactivity
20 | QDQLVDSRGGLVKAGGSLRLSCSASGRTFYYYAMGWSRQAPGQERELVADINTRVTSTYYADSVKGRFTISRDNAKNTVYLQMNSLKPEDTGVYYCAVDPYGDSWEDWLRNYYYGYDYWGQGTQVTVSS | low polyreactivity
21 | QDQLVDSRGGLVQAGGSLRLSCAASGLIFRSYAMGWSRQAPGKERELVAAITDLFWSTYYADSVKGRFTISRDYAKNTVYLQMNSLKPEDNAVFYCARDDWVYTNVEMDYWGQGTQVTVSS | high polyreactivity
22 | QDQLVESAGGLVQAGGSLRLSCAASGRTFRAYAMGWYRQAPGKAMELVAAISRNGGTTYYADSVKGRFTMSRDNAKNTVYLQMNSLKPEDTAVSYCNARAGTKTGLKSDYWGQGTQVTVSS | high polyreactivity

Row | Sequence | polyreactivity (PSR sort gate)
23 | QDQLVESCGCLVQAGGSLRLSCASSGSTFGTYAMGWYRQAPGKERELVAAISSGDSTTYADSVKGRFTISRDNAKNTVYFQRNSLKQVDTAVYYCAARTFLMRNGGYNYWGEGTQVTVSS | low polyreactivity
24 | QDQLVESCGGLVQAGGSLRLICAASGITFRYNAMGWYRQAPGKERELVAAITFSGGSTYYADSVKGRFTISRDNAKNTVYLQMISLKPEDTAVYYCAARKARPPFPHPFDYYWGQGTQVTVSS | low polyreactivity
25 | QDQLVESGAGLVQAGGSLRLSCAASGRIFTPYAMGGYRHAPRKERELVAVIRDGSTYFADSVKGRFTISRDNAKNTVYFQMKSLKPEETAGYYCRYDIWVWWSGAYDYWGQGTQVTVSS | low polyreactivity
26 | QDQLVESGGALVQAGGSLLLSCAASGITFGDHAMGWYRQAPGKEWELFAAISWSGDRTFYADSVTGRFTISRDNAKNTVSLQMNSLNPADTAVYYCNAEIGWHNEGRLSTYDYWGQGTQVTVSS | low polyreactivity
27 | QDQLVESGGCLVQAGGSLRLSCAASGSIFKRNAMGWYRQAPGKERELVASISWSGTRTYYADSVKGRFTISRDNAKNTVYLQMNSLKPEDTAVYYCARRIYGGHPSQSTQGDFYYWGHGTQVTVSS | high polyreactivity
28 | QDQLVESGGGIVQAGGSLRLSCAASGRIFYGYAMGWYRQAPGKERELVAAITSRGTSTYYADSVKGRFTISRDNAKNTVYLQMNSLKPEDTAVFYCNAAYGRSFYSKVFSYNYWGQGTQVTVSS | high polyreactivity
29 | QDQLVESGGGIVQAGVSLRLSCAANGIIFDYYAMGWYRQAPGKERELVAAINRNGGTTYYADSVKGRFTISRDNAKNTVYLQMICLKPEDTAVYYCAAVDFGWSTYYYWGQGTQVTVAS | high polyreactivity
30 | QDQLVESGGGLDQARGSLRLICAASGSTFKYYAMPSYRQAPGKERELVAAISWSGGNTYYADSVKGRFTISRENAKNTDYLQMNCLKPEDTAVYYCAADTKVGNGIKFDYWGQGTHVTVSS | high polyreactivity
31 | QDQLVESGGGLLQAGGSLRLSCAASGRTFRYYAMGWYRQAPGKERELVAAISWSGSSTYYADSVKGRFTISRDNAKNTVYLQMNSLKAEDTAVYDCNAKGVRGKYFDYSRVSAYDYWGQGTQVTVSS | low polyreactivity
32 | QDQLVESGGGLLQAGGSLSLSCAASGFTIYGYAMVWYRQAPGKERELVAAITNSGGRTYYADSVKGRFTISRDNAKNSVYLQMKSLKPEFTAVYFCAVDDLRGYDYWGQGTQVTVSS | low polyreactivity
33 | QDQLVESGGGLVEAGGSLRLSCAASGITFSWYAMVWKRQAPGKEREFVAAISPGGTSTYYADSVKGRFTISRDNAKKTVYLQMNSLKPEDTAFYYCAVQWLYPYDYWGHGTQVTVSS | high polyreactivity
34 | QDQLVESGGGLVHAGGSLRLSCAASGLTFGRNAMGWYRQAPGKERELVAAISRSGGRTSYADSVKGRFTISRDNAKYTVYLQMHSLKPEDTAVYYCAARSDVFTHDYWGQGTQVTVSS | high polyreactivity
35 | QDQLVESGGGLVHAGGSLRLSCAASGSTFSIYAMGWYRQAPGKERELVAAIPYSGGSTYYADSVKGRFTISRDNAKNTVYLQMHSLKPEDTAVNYCAAEVYDSRWWYSGATDDYWGQGTQVSVSS | high polyreactivity
36 | QDQLVESGGGLVQAAGSLRLSCAASGSTFLGNALGWYRQARGKERQLVAAISGRGGSTYYADSVKGRFTISRDNAKNTVYVQMNSLKPEDTAVYYCNAVGRRVRTWHDYDYWGKGTQVTVSS | high polyreactivity
37 | QDQLVESGGGLVQAGASLRLSCAASGFTFHNKFKGWYRQAPGKERELVATISKSGGSTYYADSVKGRFTISRDYAKNTVNLQMNSLKPEDTAVYYCARRYRDYGRYGYWGQGTQVTVSS | high polyreactivity
38 | QDQLVESGGGLVQAGCSLRLSCAASGSTFHLNAMGWYRQAPGKERELVAAITWSGGSTYYADSVKGRFTISRDNAKNTVYLQMNSLKPEDTAVYYCNAGLGKFPVKGGRRYRLDYWGQGTQVTVSS | low polyreactivity
39 | QDQLVESGGGLVQAGGRLRLSCAASGSIFNYYTMGWYRQAPGKETELVAAITWSGGRTYYADSVKGRFTISRDNAKNTVYLQMNSLKPEDTAVYYCNAVAYKPGGGEDFESWGQGTQVTVSS | high polyreactivity
40 | QDQLVESGGGLVQAGGRLRLSCAASGSTFRRYAMGWYRQAPGTERDWVAAISGGGGSTYYADSVKGRFTISRDNAKNTVYLQMNSLKPEDTAVYYCNIPFPYYPDGPNGYDYWGQGTQVTVSS | low polyreactivity
41 | QDQLVESGGGLVQAGGSHRLSCAASGRIFARNAMGWYRQAPGKERELVATIRVGGGSTYYADSVKGRFTISRDNAKNTVYLQLNSLKPEDTAVYDCAVRQLYSYPGDRRGYYWGQGTQVTVSS | low polyreactivity
42 | QDQLVESGGGLVQAGGSIRLSCAASGSILRSNALGWYRQAHVQERELVAAITFNGGSTYADSVKGRFTISRDNAKNNVYLQMNSLKPVDTSVSYCATGDGPCLFDYWGQGTQVTVSS | low polyreactivity
43 | QDQLVESGGGLVQAGGSIRLSCAASGYIFLLYDMGWYRQAPGKERDMVATITSGGGTYYADSVKGPFTISRDNAKNTVYLQMNSLKPEDTAVYYCNADLYRWTGRSYWDKHGYWGQVTQVTVSS | low polyreactivity
